These results are taken from US20040253247A1 (Genentech, published 2004).

The target in the test is T1, IgG-Fc (UniProt P01857-1 108-330 = IgG part, limits assumed).
T1 construct: domain: IgG-Fc; also called biotinylated-IgG-Fc; biotin-IgG-Fc
In words: synthetic peptide; competition assay not given.

Bridges are numbered along the chain shown (N, C = ends).

Consider H-WEADCAWHLGELVWCTPMEF-NH2 (disulfide 5-15 (inferred), Synthetic peptide) [peptide WEADCAWHLGELVWCTPMEF], for which the IC50 is 30 nM.
